# Paper PMC8184781 (2021)
# Ends that are not written are not given here.
# T1: RDM15 Tudor domain (residues 598-662), wild type (Arabidopsis thaliana)
# T1 chain: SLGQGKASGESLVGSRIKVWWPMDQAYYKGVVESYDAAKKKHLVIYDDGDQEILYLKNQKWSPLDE
# B1: H3(1-15) K4me1 peptide (peptide)
# chain: ARTK(Me)QTARKSTGGKA
# Target: T1, RDM15 Tudor domain (residues 598-662), …
# Assay: ITC
binder,measurement,value
B1,Kd,1470 nM
